The values below come from paper PMC12126530, “A low-complexity linker as a driver of intra- and intermolecular interactions in DNAJB chaperones” (Nature Communications, 2025).

Common to all, as to conditions: both partners purified
Test [1] has as its target T1, Full-length Hsc70-T204A (ATPase deficient mutant) (human, UniProt P11142 1-646, T204A).
T1 construct: Hsc70, the constitutively expressed cytosolic form of human Hsp70; full length with the ATPase-deficient mutation T204A; source: pET-15b vector, expression at 25 °C overnight, purified (StrepTactin, TEV cleavage, Superdex 200)
Nature of the test: NMR 15N-CPMG relaxation dispersion and exchange-induced shifts; 15N-labelled JDP observed, unlabelled Hsc70-T204A added to a molar ratio of 0.1 (DNAJB6 JD-GF 200 uM, DNAJB6 JD 350 uM, DNAJB1 300 uM); 25 °C; 20 mM HEPES pH 7.0, 50 mM KCl, 2.5 mM MgCl2; ATP-regenerating system with 2.5 mM ATP; fit to a two-state binding model.

Test [2] concerns the target T1, Full-length Hsc70-T204A (ATPase …). Description: fluorescence polarisation; direct binding: Hsc70-T204A titrated into 300 nM fluorescein-labelled DNAJB6 JD; 25 °C; 20 mM HEPES pH 7.0, 50 mM KCl, 5 mM MgCl2, 5 mM ATP; four-point logistic fit, 1:1 model.
The target of test [3] is T2, Full-length Hsc70-T204A (ATPase deficient mutant) (human, UniProt P11142 1-646, T204A).
T2 construct: Hsc70, the constitutively expressed cytosolic form of human Hsp70, full length, with T204A; 5 mM ATP in fluorescence polarisation; also called hydrolysis deficient Hsc70 mutant T204A; source: pET-15b vector, expressed at 25 °C overnight, purified (StrepTactin, TEV cleavage, Superdex 200)
Description: NMR 15N-CPMG relaxation dispersion with exchange-induced shifts; 15N-labelled JDP (DNAJB6 JD-GF 200 μM, DNAJB6 JD 350 μM, DNAJB1 300 μM) with unlabelled Hsc70-T204A at a molar ratio of 0.1, ATP-regenerating system, 20 mM HEPES pH 7.0, 50 mM KCl, 2.5 mM MgCl2, 25 °C, 600, 800 and 950 MHz; fit to a 2-state model; kex = kon app + koff.

B1: DNAJB6 JD (domain or fragment)
chain: not shown
notes: DNAJB6, construct truncated immediately after the J-domain; 15N-labelled for NMR; also called isolated JD of DNAJB6; DNAJB6 J-domain; source: E. coli BL21(DE3), purified (HisTrap, TEV cleavage, C18 reverse phase HPLC); not shown: His-tag, N-terminal, cleaved
B1: in test [1], the Kd was 3.4 ± 1.1 µM, the koff came out at 2740 ± 51 s⁻¹ and the kon was 8e+08 M⁻¹ s⁻¹.

B2: DNAJB1 JD-GF (domain or fragment)
chain: not shown
modifications: 15N-labelled; limits by convention: ends just before helix 5 (DNAJB6 helix 5 is 96-104, and DNAJB6 F91 aligns with DNAJB1 Y92, giving about 97-105); start as in PDB 6Z5N
As to B2, in test [1], the Kd turned out to be 288 ± 13 µM, the koff amounted to 1700 ± 40 s⁻¹ and the kon was found to be 5.91e+06 M⁻¹ s⁻¹.

B3: Fluorescently labelled DNAJB6 JD (with an additional C-terminal GSSC sequence) (domain or fragment)
chain: not shown
modifications: Fluorescein-5-Maleimide on the C-terminal cysteine
notes: DNAJB6 J-domain construct; not shown: His-tag, N-terminal, cleaved
In turn, B3 gave a Kd in test [2] of 18 ± 6.5 µM.

B4: DNAJB1 JD-GF (domain or fragment)
chain: not shown
modifications: 15N-labelled; limits by convention: ends just before helix 5 (DNAJB6 helix 5 is 96-104, and DNAJB6 F91 aligns with DNAJB1 Y92, giving about 97-105); start as in PDB 6Z5N
With B4, the Kd in test [3] is around 300 µM.

B5: DNAJB1 JD (domain or fragment)
chain: not shown
notes: DNAJB1, construct truncated immediately after the J-domain; also called DNAJB1 1-67; JD of DNAJB1; source: E. coli BL21(DE3), purified (HisTrap, TEV cleavage, C18 reverse phase HPLC); not shown: His-tag, N-terminal, cleaved
Take B5: in test [1], the Kd is around 450 µM.
